# Earlier results in publication PMC9914670.
# Key:
# [1] = target: ATP5A1 (F1 ATPase alpha subunit) (Homo sapiens) (UniProt P25705); assay: ELISA
# [2] = target: ATP5A1/5B complex (Homo sapiens) (UniProt P25705); assay: ELISA
# [3] = target: ATP5B (F1 ATPase beta subunit) (Homo sapiens) (UniProt P06576); assay: ELISA
# [4] = target: TLR4/MD2 complex (Homo sapiens) (UniProt O00206); assay: QCM
# [5] = target: ATP5A1/5B complex (Homo sapiens) (UniProt P25705); assay: QCM
# Sequence of Prothymosin alpha (P06302 2-112): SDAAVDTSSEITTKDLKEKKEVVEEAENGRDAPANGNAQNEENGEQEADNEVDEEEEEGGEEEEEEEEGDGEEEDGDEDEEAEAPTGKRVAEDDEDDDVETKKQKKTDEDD
# Sequence of ATP5A1/5B complex (Homo sapiens) (P25705 44-553, chain 1 of 2): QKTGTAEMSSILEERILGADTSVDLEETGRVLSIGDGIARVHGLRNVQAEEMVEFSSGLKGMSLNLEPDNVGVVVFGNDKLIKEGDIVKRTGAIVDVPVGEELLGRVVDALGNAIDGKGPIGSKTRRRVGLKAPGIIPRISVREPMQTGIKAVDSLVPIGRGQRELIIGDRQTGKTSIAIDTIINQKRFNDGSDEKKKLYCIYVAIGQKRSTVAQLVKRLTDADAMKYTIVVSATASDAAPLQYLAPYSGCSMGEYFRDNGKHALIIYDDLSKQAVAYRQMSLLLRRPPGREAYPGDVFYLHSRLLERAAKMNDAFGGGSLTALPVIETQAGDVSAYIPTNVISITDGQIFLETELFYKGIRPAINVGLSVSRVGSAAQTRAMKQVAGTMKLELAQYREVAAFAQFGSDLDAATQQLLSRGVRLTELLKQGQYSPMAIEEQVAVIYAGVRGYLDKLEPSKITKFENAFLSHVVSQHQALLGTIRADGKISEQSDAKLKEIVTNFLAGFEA
# Sequence of ATP5A1/5B complex (Homo sapiens) (P06576 48-529, chain 2 of 2, further chain): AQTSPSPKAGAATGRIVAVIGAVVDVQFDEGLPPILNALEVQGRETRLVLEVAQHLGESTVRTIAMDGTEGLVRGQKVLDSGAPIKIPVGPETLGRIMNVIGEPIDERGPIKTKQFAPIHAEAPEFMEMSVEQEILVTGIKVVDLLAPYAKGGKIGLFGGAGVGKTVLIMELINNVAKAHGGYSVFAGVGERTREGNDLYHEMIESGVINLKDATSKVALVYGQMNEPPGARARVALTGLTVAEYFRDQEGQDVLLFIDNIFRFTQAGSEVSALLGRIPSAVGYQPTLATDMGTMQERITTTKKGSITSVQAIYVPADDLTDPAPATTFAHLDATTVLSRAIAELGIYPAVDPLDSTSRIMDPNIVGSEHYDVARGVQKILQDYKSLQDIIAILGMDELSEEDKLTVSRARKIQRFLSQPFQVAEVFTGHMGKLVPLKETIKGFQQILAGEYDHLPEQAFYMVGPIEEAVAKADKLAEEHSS
# Sequence of ATP5A1 (F1 ATPase alpha subunit) (Homo sapiens) (P25705 44-553): as the sequence (P25705 44-553, chain 1 of 2) above
# Sequence of ATP5B (F1 ATPase beta subunit) (Homo sapiens) (P06576 48-529): as the sequence (P06576 48-529, chain 2 of 2, further chain) above
# Sequence of TLR4/MD2 complex (Homo sapiens) (O00206 24-839, chain 1 of 2): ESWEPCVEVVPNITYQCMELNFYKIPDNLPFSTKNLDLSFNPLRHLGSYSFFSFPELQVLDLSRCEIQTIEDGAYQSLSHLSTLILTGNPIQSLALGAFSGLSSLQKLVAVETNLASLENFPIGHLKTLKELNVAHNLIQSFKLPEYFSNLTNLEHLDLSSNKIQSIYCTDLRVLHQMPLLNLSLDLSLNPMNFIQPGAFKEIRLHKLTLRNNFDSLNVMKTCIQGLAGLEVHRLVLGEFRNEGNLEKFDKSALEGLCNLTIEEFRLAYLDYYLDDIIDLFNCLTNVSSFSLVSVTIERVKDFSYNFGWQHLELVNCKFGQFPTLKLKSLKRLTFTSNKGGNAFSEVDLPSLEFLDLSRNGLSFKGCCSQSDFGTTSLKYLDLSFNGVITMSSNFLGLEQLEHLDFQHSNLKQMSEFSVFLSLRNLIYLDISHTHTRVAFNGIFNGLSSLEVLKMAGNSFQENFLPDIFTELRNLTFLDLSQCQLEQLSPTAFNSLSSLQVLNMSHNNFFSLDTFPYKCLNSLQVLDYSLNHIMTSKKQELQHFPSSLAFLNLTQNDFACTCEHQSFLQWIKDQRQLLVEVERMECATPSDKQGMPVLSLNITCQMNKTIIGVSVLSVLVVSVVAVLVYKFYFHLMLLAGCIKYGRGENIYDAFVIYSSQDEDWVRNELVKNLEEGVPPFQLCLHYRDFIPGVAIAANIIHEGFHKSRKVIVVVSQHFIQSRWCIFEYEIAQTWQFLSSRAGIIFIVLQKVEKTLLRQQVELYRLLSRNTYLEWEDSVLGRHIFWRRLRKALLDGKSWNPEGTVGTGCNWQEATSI
# Sequence of TLR4/MD2 complex (Homo sapiens) (Q9Y6Y9 19-160, chain 2 of 2, further chain): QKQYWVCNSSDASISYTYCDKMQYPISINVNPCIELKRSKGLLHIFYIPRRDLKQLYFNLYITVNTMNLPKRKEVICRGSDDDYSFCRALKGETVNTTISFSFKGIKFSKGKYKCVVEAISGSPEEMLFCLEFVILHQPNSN
substance,measurement,setting,value
Prothymosin alpha (from UniProt P06302),Kd,[1],68 nM
same,Kd,[2],55.8 nM
same,Kd,[3],241 nM
same,Kd,[4],16100 nM
same,Kd,[5],28.1 nM
